Test results: patent US20250361274A1, “PEPTIDE AND PEPTIDE-CONTAINING AGENT” (PEPTIDREAM INC., priority 2022, published 2025)
pIC50: −log10 of the molar value. Numbered stars: 1 amine (or outer) side, 2 acyl side, 3 side chain; on linkers, the order of the positions; unused ones are H or OH. Bridge positions count the residues as written; N and C are the ends. Square brackets hold non-standard residues; d marks the D form. Ends that are not written are not given here. Peptide text beside a SMILES is read from it. KCOpipzaa = N6-(4-(carboxymethyl)piperazine-1-carbonyl)-L-lysine, O=C(NCCCC[C@H](N[*:1])C(=O)[*:2])N1CCN(CC(=O)[*:3])CC1; F3aa = (S)-2-amino-3-[3-(carboxymethyl)phenyl]propanoic acid, O=C([C@H](Cc1cccc(CC(=O)[*:3])c1)N[*:1])[*:2]; 3Pal(6-Ph) = N[C@@H](Cc1ccc(-c2ccccc2)nc1)C(=O)O; Phe(4-COOH) = N[C@@H](Cc1ccc(C(=O)O)cc1)C(=O)O; NMePhe(4-Me) = CN[C@@H](Cc1ccc(C)cc1)C(=O)O; Bip = N[C@@H](Cc1ccc(-c2ccccc2)cc1)C(=O)O; Phe(4-F) = N[C@@H](Cc1ccc(F)cc1)C(=O)O; Ala(4-THP) = N[C@@H](CC1CCOCC1)C(=O)O; cisHyp = O=C(O)[C@@H]1C[C@H](O)CN1; NMeF = CN[C@@H](Cc1ccccc1)C(=O)O; hCit = NC(=O)NCCCC[C@H](N)C(=O)O; 4Pal = N[C@@H](Cc1ccncc1)C(=O)O; Aad = N[C@@H](CCCC(=O)O)C(=O)O; Cha = N[C@@H](CC1CCCCC1)C(=O)O; βAla = NCCC(=O)O

Legend:
[1] = molecular target: T1, BMP7 (Homo sapiens, UniProt P18075); assay: BMP7 signal transduction inhibitory activity: SMAD1 phosphorylation by BMP7 stimulus, A549 cells; assay type: cell-based; details: for aLISA BMP7: inhibition of SMAD1 phosphorylation by BMP7 stimulus, A549 cells
T1 sequence (P18075 293-431): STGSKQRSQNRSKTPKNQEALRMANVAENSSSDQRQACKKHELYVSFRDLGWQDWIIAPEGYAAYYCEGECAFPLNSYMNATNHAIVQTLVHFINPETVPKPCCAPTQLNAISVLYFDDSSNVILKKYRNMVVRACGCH
Protocol: In the present Example, BMP7 signal transduction inhibitory activity of each peptide consisting of an amino acid sequence set forth in any of SEQ ID NOs: 5 to 240 and 243 to 421 synthesized in Example 10 was verified by phosphorylation of SMAD1 caused by BMP7 stimulus. The evaluation was performed using 10 nM of BMP7 instead of BMP 4. Regarding SEQ ID NOs: 5 to 240, the concentrations of the peptides synthesized in the same manner as in Example 2 (shown as 2 in the row of Synthesis) were 1 nM, 10 nM, and 100 nM, and the concentrations of the peptides synthesized in the same manner as in Example 1 (shown as 1 in the row of Synthesis) were 10 nM, 100 nM, and 1,000 nM, similarly with Example 11. […] Regarding SEQ ID NOs: 243 to 273 and SEQ ID NOs: 299 to 321, the test was performed at the concentrations (10, 100, 1,000 nM) described in Table 6. […] Regarding SEQ ID NOs: 274 to 298, the test was performed at the concentrations (100, 300, 1,000 nM) described in Table 6. […] Regarding SEQ ID NOs: 322 to 370 and SEQ ID NOs: 393 to 421, the test was performed at the concentrations (1, 10, 100 nM). […] Regarding SEQ ID NOs: 371 to 391, the test was performed at the concentrations (10, 30, 90 nM). […] The evaluation tests of the signal transduction inhibitory activities of SEQ ID NOs: 87, 177, and 181 are as follows. Specifically, the inhibitory activity of BMP4 was evaluated in the same manner as in Example 11 that used A549 cells. Eight concentrations of the peptides were used at a common ratio of 1/3 starting from 2 nM. The inhibitory activity of BMP7 was evaluated in the same manner as in Example 12. Eight concentrations of the peptides were used at a common ratio of 1/3 starting from 100 nM. Note that recombinant Human Noggin Protein (R&D) as a positive control was used at the same concentration as that of the peptide. […] The inhibitory activity of BMP7 was evaluated using eight concentrations of the peptides at a common ratio of 1/3 starting from 1,000 nM in the same manner as in Example 12.

[2] = molecular target: T2, BMP4 (Homo sapiens, UniProt P12644); assay: BMP4 signal transduction inhibitory activity: SMAD1 phosphorylation by BMP4 stimulus, AlphaLISA SureFire, A549 cells; assay type: cell-based; details: A549 cells
T2 sequence (P12644 293-408): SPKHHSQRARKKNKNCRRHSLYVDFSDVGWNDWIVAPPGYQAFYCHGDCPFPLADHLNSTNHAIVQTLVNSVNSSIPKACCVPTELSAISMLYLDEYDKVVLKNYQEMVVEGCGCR
Protocol: In the present Example, a BMP4 signal transduction inhibitory activity of each peptide consisting of an amino acid sequence set forth in any of SEQ ID NOs: 5 to 240 and 243 to 421 synthesized in Example 10 was verified by phosphorylation of SMAD1 caused by BMP4 stimulus. A549 cells were cultured in MEM (Thermo Fisher Scientific) containing 10% FBS (Thermo Fisher Scientific), 1×Non-essential amino acids (Thermo Fisher Scientific), and 50 μg/mL Gentamicin. After TrypLE (Gibco) was used to peel the cells, seeding was performed in a 96-well plate for adhesion cells so that the number of cells would be 20,000 per well, followed by culturing for 48 hours. After the cells were cultured as described above, the culture medium was replaced with a peptide solution or recombinant Human Noggin Protein (R&D) solution as a positive control diluted to various concentrations in a nutrition-starved culture medium containing 0.1% BSA (Sigma) instead of FBS Thirty minutes after culturing, […], to stimulate it for 60 minutes. The culture medium was removed and the cells were lysed with Lysis Buffer provided with AlphaLISA (registered trademark) SureFire (registered trademark) Ultra SMAD1 (p-[…]/465) Assay kit (PerkinElmer). According to the protocol of the kit, a signal was detected using SpectraMax (registered trademark) Paradigm (registered trademark) multimode microplate reader (Molecular Devices). The obtained signal was analysed using GraphPad Prism (GraphPad Software). The % inhibition was calculated by considering non-stimulation as 100% inhibition and BMP stimulation only as 0% inhibition. Regarding SEQ ID NOs: 5 to 187, the concentrations of the peptides synthesized in the same manner as in Example 2 (shown as 2 in the row of Synthesis) were 0.02 nM, 0.2 nM, and 2 nM, and the concentrations of the peptides synthesized in the same manner as in Example 1 (shown as 1 in the row of Synthesis) were 0.2 nM, 2 nM, and 20 nM. The evaluation results were based on the results of evaluation using the peptides synthesized in the same manner as in Example 2. […] Regarding SEQ ID NOs: 243 to 321, the test was performed at the concentrations described in Table 6. […] Regarding SEQ ID NOs: 322 to 421, the test was performed at the concentrations described in Table 7. […] The evaluation tests of the signal transduction inhibitory activities of SEQ ID NOs: 87, 177, and 181 are as follows. Specifically, the inhibitory activity of BMP4 was evaluated in the same manner as in Example 11 that used A549 cells. Eight concentrations of the peptides were used at a common ratio of 1/3 starting from 2 nM. The inhibitory activity of BMP7 was evaluated in the same manner as in Example 12. Eight concentrations of the peptides were used at a common ratio of 1/3 starting from 100 nM. Note that recombinant Human Noggin Protein (R&D) as a positive control was used at the same concentration as that of the peptide. […] The inhibitory activity of BMP7 was evaluated using eight concentrations of the peptides at a common ratio of 1/3 starting from 1,000 nM in the same manner as in Example 12.

[3] = class of inhibition of SMAD1 phosphorylation by BMP4 stimulus, AlphaLISA

| Molecule | aLISA BMP4 [2, 3] | also measured |
| --- | --- | --- |
| Cc1ccc(C[C@H]2C(=O)N[C@@H](CC(C)C)C(=O)N3C[C@@H](O)C[C@H]3C(=O)N[C@H](C(=O)NCCC(=O)N[C@H](CCC(=O)O)C(=O)O)CSCC(=O)N[C@@H](Cc3ccc(F)cc3)C(=O)NCC(=O)N(C)[C@@H](Cc3ccccc3)C(=O)NCC(=O)N[C@@H](Cc3ccc(-c4ccccc4)nc3)C(=O)NCC(=O)N[C@@H](CC(=O)O)C(=O)N[C@@H](CCC(=O)O)C(=O)N[C@@H](CC3CCCCC3)C(=O)N[C@@H](CCCC(=O)O)C(=O)N2C)cc1 [Peptide 417] ({CH2CO}-[Phe(4-F)]G[NMeF]G[3Pal(6-Ph)]GDE[Cha][Aad][NMePhe(4-Me)]L[cisHyp]C[βAla][dE]-OH; thioether N-14) | – | pIC50 ([1]; Table 2-2, 277 from 1,000 nM (1/3), 417 from 300 nM (1/4)): 7.81 |
| 46 (ARVYVDR[Bip]PYP[Bip]Y[Phe(4-COOH)][Phe(4-COOH)]SC) [compound 46] | – | aLISA BMP7 ([1]; AlphaLISA, class by peptide concentration zone): ND (the inhibitory activity was less than 30% at the maximum concentration evaluated); aLISA BMP4 ([2]; inhibition of SMAD1 phosphorylation by BMP4 stimulus, AlphaLISA, class by peptide concentration zone): A (showed an inhibitory activity of 50% or more in a zone to which the peptide was added to in an amount of 0.2 nM) |
| 120 ({CH2CO}-E[KCOpipzaa]VYV[KCOpipzaa]R[3Pal(6-Ph)]SYP[Bip]Y[Phe(4-COOH)][Phe(4-COOH)]SCG-NH2; thioether N-17; not fully specified) [compound 120] | – | aLISA BMP7 ([1]; peptides of Synthesis 2, classes A-D, ND): ND (the inhibitory activity was less than 30% at the maximum concentration evaluated); aLISA BMP4 ([2]; inhibition of SMAD1 phosphorylation by BMP4 stimulus, peptides of Synthesis 2, classes A-C, ND): A (showed an inhibitory activity of 50% or more in a zone to which the peptide was added to in an amount of 0.2 nM) |
| 183 ({CH2CO}-ERVY[Ala(4-THP)][KCOpipzaa]R[Bip]PY[cisHyp][Bip]Y[Phe(4-COOH)][Phe(4-COOH)]SC[βAla][dE]-OH; thioether N-17; not fully specified) [compound 183] | A (showed an inhibitory activity of 50% or more in a zone to which the peptide was added to in an amount of 0.2 nM) | – |
| 187 ({CH2CO}-E[KCOpipzaa]V[Phe(4-COOH)][Ala(4-THP)]DR[Bip]PYP[Bip][Phe(4-F)][Phe(4-COOH)][4Pal]SC[βAla][dE]; thioether N-17) [compound 187] | C (showed an inhibitory activity of less than 50% in 0.2 nM-addition zone and showed an inhibitory activity of 50% or more in 2 nM-addition zone were defined as B or C) | – |
| 178 ({CH2CO}-ERV[Phe(4-COOH)][Ala(4-THP)]DR[Bip]PYV[Bip]Y[Phe(4-COOH)][Phe(4-COOH)]SC[βAla][dE]-OH; thioether N-17; not fully specified) [compound 178] | A (showed an inhibitory activity of 50% or more in a zone to which the peptide was added to in an amount of 0.2 nM) | – |
| 185 ({CH2CO}-E[KCOpipzaa]V[Phe(4-COOH)][Ala(4-THP)]DR[Bip]PY[F3aa][Bip][Phe(4-F)][Phe(4-COOH)][4Pal]SC[βAla][dE]; thioether N-17) [compound 185] | C (showed an inhibitory activity of less than 50% in 0.2 nM-addition zone and showed an inhibitory activity of 50% or more in 2 nM-addition zone were defined as B or C) | – |
| 186 ({CH2CO}-E[KCOpipzaa]V[Phe(4-COOH)][Ala(4-THP)]DR[Bip]PY[cisHyp][Bip][Phe(4-F)][Phe(4-COOH)][4Pal]SC[βAla][dE]; thioether N-17) [compound 186] | A (showed an inhibitory activity of 50% or more in a zone to which the peptide was added to in an amount of 0.2 nM) | – |
| 184 ({CH2CO}-ERVY[Ala(4-THP)][KCOpipzaa]R[Bip]PYP[Bip]Y[Phe(4-COOH)][Phe(4-COOH)]SC[βAla][dE]; thioether N-17) [compound 184] | A (showed an inhibitory activity of 50% or more in a zone to which the peptide was added to in an amount of 0.2 nM) | – |
| 163 ({CH2CO}-ERVYVDR[Bip]SYY[Bip]Y[Phe(4-COOH)][Phe(4-COOH)]SC[βAla][dE]-OH; thioether N-17; not fully specified) [compound 163] | A (showed an inhibitory activity of 50% or more in a zone to which the peptide was added to in an amount of 0.2 nM) | – |
| 180 ({CH2CO}-ERV[Phe(4-COOH)][Ala(4-THP)][KCOpipzaa]R[Bip]PY[cisHyp][Bip]Y[Phe(4-COOH)][Phe(4-COOH)]SC[βAla][dE]-OH; thioether N-17; not fully specified) [compound 180] | A (showed an inhibitory activity of 50% or more in a zone to which the peptide was added to in an amount of 0.2 nM) | – |
| 179 ({CH2CO}-ERV[Phe(4-COOH)][Ala(4-THP)][KCOpipzaa]R[Bip]PY[F3aa][Bip]Y[Phe(4-COOH)][Phe(4-COOH)]SC[βAla][dE]-OH; thioether N-17; not fully specified) [compound 179] | C (showed an inhibitory activity of less than 50% in 0.2 nM-addition zone and showed an inhibitory activity of 50% or more in 2 nM-addition zone were defined as B or C) | – |
| 182 ({CH2CO}-ERVY[Ala(4-THP)][KCOpipzaa]R[Bip]PY[F3aa][Bip]Y[Phe(4-COOH)][Phe(4-COOH)]SC[βAla][dE]-OH; thioether N-17; not fully specified) [compound 182] | A (showed an inhibitory activity of 50% or more in a zone to which the peptide was added to in an amount of 0.2 nM) | – |
| 169 ({CH2CO}-E[hCit]VY[Ala(4-THP)]DR[Bip]SYV[Bip]Y[Phe(4-COOH)][Phe(4-COOH)]HC[βAla][dE]-OH; thioether N-17; not fully specified) [compound 169] | C (showed an inhibitory activity of less than 50% in 0.2 nM-addition zone and showed an inhibitory activity of 50% or more in 2 nM-addition zone were defined as B or C) | – |
| 164 ({CH2CO}-ERVYVDR[Bip]SYV[Bip]Y[Phe(4-COOH)][Phe(4-COOH)]HC[βAla][dE]-OH; thioether N-17; not fully specified) [compound 164] | A (showed an inhibitory activity of 50% or more in a zone to which the peptide was added to in an amount of 0.2 nM) | – |
